In article PMC13585564:
Each block holds one substance with its values, some of them ahead of it.

Key:
[1] = molecular target: HSL3 ectodomain (wild type, residues 23–627); test: ITC; conditions: ligand in syringe, receptor in cell; N = 1
[2] = molecular target: HSL3 ectodomain (wild type, residues 23–627) (Arabidopsis); test: ITC; CTNIP4 peptide (140–800 µM, syringe) injected into 15 µM HSL3 ectodomain or variant (cell); 25 °C; 20 mM sodium citrate, 150 mM NaCl, pH 5.0; N fitted to 1
[3] = molecular target: SERK1 ectodomain (residues 24–213) (UniProt Q94AG2); test: ITC; conditions: SERK1 in syringe; HSL3 + peptide in cell; N = 1
CTNIP4(46–70)_(Cys–Cys) = test: ITC; conditions: ligand in syringe, receptor in cell; N = 1
SERK3 = test: ITC; conditions: SERK3 in syringe; HSL3 + peptide in cell; N = 1

Chain of SERK1 ectodomain (residues 24–213) (Q94AG2 whole entry, looked up, the tested form may be a part): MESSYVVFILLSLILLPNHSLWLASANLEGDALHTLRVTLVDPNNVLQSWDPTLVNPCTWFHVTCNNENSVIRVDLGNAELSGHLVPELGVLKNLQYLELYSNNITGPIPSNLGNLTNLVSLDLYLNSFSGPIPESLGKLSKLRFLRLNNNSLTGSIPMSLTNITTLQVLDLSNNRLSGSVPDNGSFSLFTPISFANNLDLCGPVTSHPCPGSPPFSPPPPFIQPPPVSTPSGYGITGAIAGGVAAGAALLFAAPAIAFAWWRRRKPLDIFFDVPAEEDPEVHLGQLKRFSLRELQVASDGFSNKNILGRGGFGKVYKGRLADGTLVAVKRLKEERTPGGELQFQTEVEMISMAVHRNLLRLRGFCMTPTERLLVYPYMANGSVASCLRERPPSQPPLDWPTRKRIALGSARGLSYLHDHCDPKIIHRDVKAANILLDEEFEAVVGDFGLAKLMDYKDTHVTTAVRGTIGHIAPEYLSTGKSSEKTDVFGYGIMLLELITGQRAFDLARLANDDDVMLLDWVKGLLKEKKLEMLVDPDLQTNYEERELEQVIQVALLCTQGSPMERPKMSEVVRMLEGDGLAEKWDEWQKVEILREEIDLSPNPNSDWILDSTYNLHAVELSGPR

Kd [1]: 3.44 µM
other: ΔH [1]: -17.5 kcal/mol
Substance: CTNIP4(46–70)_(Cys–Cys) S53A

other: ΔH (CTNIP4(46–70)_(Cys–Cys)): -17.6 kcal/mol
Substance: HSL3 ectodomain (wild type, residues 23–627) D241A

other: ΔH (CTNIP4(46–70)_(Cys–Cys)): -3.4 kcal/mol
Substance: HSL3 ectodomain (wild type, residues 23–627) D288A

Further lines, the substance ahead of its results:

Substance: CTNIP4^C58A.C68A(46–70)_(linear) (peptide)
fold impairment of binding against CTNIP4(46–70) (Cys–Cys) [2]: 200 fold

Substance: HSL3 + CTNIP4(46–63) C58A
other: ΔH [3]: -3.7 kcal/mol

Substance: HSL3 ectodomain (wild type, residues 23–627) E171A
other: ΔH (CTNIP4(46–70)_(Cys–Cys)): -21.2 kcal/mol

Substance: HSL3 ectodomain (wild type, residues 23–627) R358A
Kd (CTNIP4(46–70)_(Cys–Cys)): 0.112 µM
other: ΔH (CTNIP4(46–70)_(Cys–Cys)): -25.9 kcal/mol

Substance: HSL3–CTNIP4 complex (HSL3 ectodomain pre-incubated with CTNIP4(46–70)_(Cys–Cys)) C58A; C68A
other: ΔH [3]: -7.1 kcal/mol

Substance: HSL3–CTNIP4 complex (HSL3 ectodomain pre-incubated with CTNIP4(46–70)_(Cys–Cys)) N60A
other: ΔH (SERK3): 3.3 kcal/mol

Substance: HSL3–CTNIP4 complex (HSL3 ectodomain pre-incubated with CTNIP4(46–70)_(Cys–Cys)) N60F
other: ΔH (SERK3): 13.2 kcal/mol
